A protein production outcome set (Wang et al. 2014)

Experiment: label from the status in PepcDB records

Row | Sequence | protein production
1 | MMKIIAFVGMPASGKSEASRIAAEMGIPVIIMGDVIRKEVLKRGLEPNDSNTGMVATDLRKHEGMGAVARRCISQIRETGSELVVVDGVRGIAEVECFRKEFGKGFILISIYAPIEVRFSRVQKRGRSDDMNSIEGLRHRDERELSWGMGEAIDASNVEIENNFTLETFRKDVRDVLSNYLEADLEK | not failed
2 | MDWEERENPKRLVKTFAFPNFREALDFANRVGALAERENHHPRLTVEWGRVTVEWWTHSAGGVTEKDREMARLTDALLQR | not failed
3 | MRPGAPGPLWPLPWGALAWAVGFVSSMGSGNPAPGGVCWLQQGQEATCSLVLQTDVTRAECCASGNIDTAWSNLTHPGNKINLLGFLGLVHCLPCKDSCDGVECGPGKACRMLGGRPRCECAPDCSGLPARLQVCGSDGATYRDECELRAARCRGHPDLSVMYRGRCRKSCEHVVCPRPQSCVVDQTGSAHCVVCRAAPCPVPSSPGQELCGNNNVTYISSCHMRQATCFLGRSIGVRHAGSCAGTPEEPPGGESAEEEENFV | failed
4 | MTIFEKNVIEFVTVAAEFCAFLERAEHMKRKAFVDTSLKILPLLYLKASLLPKCETIGDEAPETYVTEEIYEILRINLAGLMGEKDDYLDVFVQDMVYSDQPIKKSVSEDLADIYQDIKDFIFVFQLGLNETMNDSLAICQENFGLLWGQKLVNTLRALHDVKYLEHHHHHH | failed
5 | MLVLSYILLFASALFAWNMGSHYSGAVMGMAYGSKSLTIRQATVIAATFAFLGTITASSGVVHTYAFSLVGTTTIRQLTAALLGASVAILISTILKLPASTIQVYTFSLLFVGLASNIKLMYGGIEIVLSMWILMPLAAMLLSYLLAPKLVSKLADDSRKLKIIIIGSSVFSSFTLGSNDVSSAISPLVKVGILTGIVPYVFGGFFIGLGLITWGQRLIRRVGTEVVKTNAPLAAAAQLTEAIVIISGNLVGYNASINQTIIMSIYGAKRSMKSHVVTPMIFRSILLNWTVSSLISAVFGLFFLFILNLYI | failed
6 | MNPDFLGALLIGLVGAGHCMGMCGGIASLLSLGSSSSKSSPTIPLFYNLGRLSSYALIGALVGGAISGLSELSGLAQSLAWLRFVAAIFMILVALYIAKWWQGLLIVEKMGQHLWKFISPAGKSLLPLKKPIHALPFGFVWGWLPCGLVYSALTWSAVSGSAVNGGLIMLAFGLGTLPSMLAVGYGASHFQKLQKSLIFRNISALILIVYGAYTAAGAMQMLGFI | failed
7 | MTFGQSIGTCFAKYITFSGRASRPEYWYFFLFLLLGSIAATMLDALLFDAVTTTVETSDTSTSARIENTGPIAPIFSLAVFLPHLAVAFRRMHDTGRSGIYAILPFLLMLCAVLVLVFGVGIASSFAAGGSLDLLFTRATLLLLIPTLAVLFISPLLVLWWLTRPSQPGTNQYGPNPVRAVAS | failed
8 | TVGILWVNWDSHVRYANRAAEEMLGYPAGGVIDRPLIDFEPNLHMDRWLNLWKRARASEEGVQSFETQCVRADGSILPADVSLSFLRFRDSEYLVVYLNDV | failed
9 | QYRLRQLPEVSGAMVVMDPLTGRVLAMVGGFSFDQSQFNRATQAYRQPGSSFKPLVYSAAMDNGYTPSTVVIDAPIEIDQGQGVGVWRPENYSTGKYYGPTTLRNALQRSLNTVTVRLAQDIGMPLIGEYAKRFGVYDDLPNYLSYALGAGETTVMRMVTAYSMFANGGRRVKATLIDRIQDRYGHTIFKHDQRECRGCEAPNGWKNQPEPQLVDRREQVLDPMTAYQITSMMEGVVQAGTATVLREVGKPIAGKTGTTNDEKDAWFIGFSPDLVCGVYIGYDKPRNLGRGATGGHLAAPIAKDFFKLALAEKPAVPF | failed
10 | MSSEEDYFDELEYDLADEVNEEKEDIQTKKLTTVNCQTEKFNPFEILPESIELFRTLALISPDRLSLSETAQILPKIVDLKRILQQQEIDFIKLLPFFNEIIPLIKSNIKLMHNFLISLYSRRFPELSSLIPSPLQYSKVISILENENYSKNESDELFFHLENKAKLTREQILVLTMSMKTSFKNKEPLDIKTRTQILEANSILENLWKLQEDIGQYIASKISIIAPNVCFLVGPEIAAQLIAHAGGVLEFSRIPSCNIASIGKNKHLSHELHTLESGVRQEGYLFASDMIQKFPVSVHKQMLRMLCAKVSLAARVDAGQKNGDRNTVLAHKWKAELSKKARKLSEAPSISETKALPIPEDQPKKKRAGRKFRKYKEKFRLSHVRQLQNRMEFGKQEQTVLDSYGEEVGLGMSNTSLQQAVGATSGSRRSAGNQAKLTKVMKHRISEANQQADEFLISLGHNTEQPNLSPEMVQMHKKQHTNPEEETNWFSGHG | failed
11 | SCNETGMLERLPLCGKAFADMMGKVDVWKWCNLSEFIVYYESFTNCTEMEANVVGCYWPNPLAQGFITGIHRQFFSNCTVDRVHLEDPPDEVLIPLIVIPVVLTVAMAGLVVWRSKRTDTLL | not failed
12 | MELVIILLALSLLMFVAYRGFSVILFAPIFALFAVFLTEPSYVLPFFSNIFMEKMVGFIKLYFPVFLLGAIFGKVVEMSGIADSIAKTIIELVGEKRTILAIVLMGAILTYSGVSVYVVVFAVYPFAAKLFRQANIPKRLIPGTIVLGAVTFTMDALPGSPQIQNVIPTTFFKTDIYAAPILGIVGAIFVLTVGLLYLESRRKKAKAEGEGYFGFNDGNTEMAASLQVEQKNMPLTNNIEITRAQQLITFIPLILVGVMNKVFTIMIPKWYPSGFDFSAIGMKAFGKVELSAVVGIWSVELALIIGILTTLLLYWKRVVTGFQAGLNTSIGGALLATMNTGAEFGFGGVIAALPGFAIMRDGISATFTNPLVNGAVTTNILAGITGSASGGMGIVLSAMGDKFIAAANQFDIPLEVMHRIVSMASGGMDTLPHNGAIITILTVTGLTHKQSYKDIFAITILKTVAVFLVIAFYTLTGLY | failed
13 | MVRKGQMIIGAFACLIASMSWGAMFPVADHALEYIDPFYFSLIRYGAVAIMLIVLLLMKEGKQAFRLEGRGRLLVFFGTMAFTVYNVLIFLGQMLMGKSGVMVASIMEALMPMISICILWGYKRVKPKKYMITSMIIAFIGAVFVITKGDVSFFLTLKDNMFSLACIFVGVVGWVIYTMGGQTCSDWSTLRYSTLTCVFGTTVTGIITVLITSLGYVSVPSMGTISVVKYDLLFMMTLPGIVALLAWNYGVKILSSINGILFINFVPITTLVIMMMQGYQITMFDIVGTLFVIAALIRNNVCQRKEENINKKMLQEEQLRQAV | failed
14 | MADWVTGKVTKVQNWTDALFSLTVHAPINPFTAGQFTKLGLEIDGERVQRAYSYVNAPDNPNLEFYLVTVPQGKLSPRLAALKPGDEVQVVSDASGFFVLDEVPDCETLWMLATGTAIGPYLSILQYGQDVARFKNLVLVHAARFAADLSYLPLMLELQQRYEGKLRIQTVVSRENVPGSLTGRVPALIENGELEKAVGLPMDKETSHVMLCGNPQMVRDTQQLLKETRQMTKHLRRRPGHMTAEHYW | not failed
15 | NGDQQTMVYIVSAKRKIIADRMLQELDLGVTMLQAVGAYKNNETEVIMCVMRKATLVKVRNLLKEVDPDAFMIVSTANEVFGEGFKNQYETEI | not failed
16 | MFDSVLQQSMQQWLETSLGQYVLEQEQRYFDRVVTDIFGYNATQIGFSGFDFLRNNRMPFKFAFGVRDGASVYAHPHFLPIKSSSIDLVLLPHTLEFNSNPHQILREAHRVLIPEGKVIISGFNPFSLWGMRQRMAKSKTDFPWCGRFIALPRMQDWLELHNFEIVAGQFGCYVPPCTREKWLSRLRFMEAAGDRWWPIAGGVYFLQAVKHECGLHIITPRWEDSPAKRGTVVVPQIERGHRMNNLEVSTVPWREKAGGGLIENRKYGVQYSVNNRDV | failed
17 | SVTIDHTTENAAPAQAPVSDRAWALFRALDGKGLVPDGYVEGWKKTFEEDFSPRRGAELVARAWTPRRGAELVARAWTDPEFRQLLLTDGTAAVAQYGYLGPQGEYIVAVEDTPTLKNVIVCSLCSCTAWPILGLPPTWYKSFEYRARVVREPRKVLSEMGTEIASDIEIRVYDTTAETRYMVLPQRPAGTEGWSQEQLQEIVTKDCLIGVAIPQVPTV | not failed
18 | MNLIKTCGLCLLLSVALSGCVTAPTPPESDPQAEQAVLEVSFSEAVKAMKQGNFTEARTVFEQLARNYPDKAGPMANLGIIAFREGDADGAKEWFERARAVNPEHVQALNHLGVIARNAGEFDEAERYYRAALAADPDYAPAILNLAFLLDIYLGNPADAIELYERYQSAASEPHPRLEDWIFDAKNRI | failed
19 | MASNSRSSISPWTFSQNKMFERALAVYDKDTPDRWHNVAKAVGGKTVEEVKRHYDILVEDLINIETGRVPLPNYKTFESNSRSINDFDTRYITKYLYMMLSIYFDNHSSDFEKFSQKVLVSYISLV | failed
20 | MSLSDWHLAVKLADQPLAPKSILQLPETELGEYSLGGYSISFLKQLIAGKLQESVPDPELIDLIYCGRKLKDDQTLDFYGIQPGSTVHVLRKSW | not failed
21 | METRTLEDWRALLEAEKTLDSGVYNKHDLLIVRGQGARVWDAEGNEYIDCVGGYGVANLGHGNPEVVEAVKRQAETLMAMPQTLPTPMRGEFYRTLTAILPPELNRVFPVNSGTEANEAALKFARAHTGRKKFVAAMRGFSGRTMGSLSVTWEPKYREPFLPLVEPVEFIPYNDVEALKRAVDEETAAVILEPVQGEGGVRPATPEFLRAAREITQEKGALLILDEIQTGMGRTGKRFAFEHFGIVPDILTLAKALGGGVPLGAAVMREEVARSMPKGGHGTTFGGNPLAMAAGVAAIRYLERTRLWERAAELGPWFMEKLRAIPSPKIREVRGMGLMVGLELKEKAAPYIARLEKEHRVLALQAGPTVIRFLPPLVIEKEDLERVVEAVRAVLA | not failed
22 | MTDVRHCPAVLIAAPASGQGKTTVTAALARLHRNRGRKVRVFKCGPDFLDPMILERASGAAVYQLDMWMVGEQESRRLLWEAAGEADLILIEGVMGLFDGTPSSADLARHFGVPVLGVIDGTAMAQTFGALALGLARYQPDLPFAGVLANRVGTLRHAQLLEGSLTEGLRWYGALSRETDIELPSRHLGLVQASELNDLDLRLDAAAEALASSCQVELPPAVSFAAPTPVACAPLLKGVRIAVARDEAFAFTYGASLDLLRAMGAQLSFFSPIHDTQLPDADSLYLPGGYPELHHQALARNSSMLQAIRAHHAAGKPLLAECGGMLYLLDSLTDVEGQRAELLGLLPGDAVMQKRLAALALQAVDLPEGSLRGHTYHHSLTSTELLPIARGLSPNGGRGAEAVYRQGRMTASYVHFYFPSNPAAVAALFAPGAPVEPVLAEGVAGELEHHHHHH | failed
23 | MAQKMTGALVFDERTDRYDIRFDLNSYYGGLHCGECFDVFVRGKWKPTRIEYGDNWYLVGIRAEDLNGLRVRILEHHHHHH | not failed
24 | MKGRLLQRLRQLSISNSLRGAFLTGALLTLIVSMVSLYSWHEQSSQVRYSLDEYFPRIHSAFLIEGNLNLAVDQLNEFLLAPNTTVRLQLRTQIIQHLDKIERLSQGLQLAERRQLAVILQDSRTLLAELDNALYNMFLVREKVSELSARLTGSSDDFTTELNSLVQDFTWQQGTLLDQIEANQGDAAQYLQRSREVQNEQQQVYTLAEIENQIVDDLRDRLNELKSGNNDGMLVETHIRYLENLKKTADENIRALDDWPSTITLRQTIDELLEIGMVKNKMPDTMRDYVAAQKALLDASRAREATLGRFRTLLEAQLGSSHQQMQTFNQRLEQIVRVSGGLILVATLLALLLAWGLNHYFIRSRLVKRFTALNQAVVQIGLGRTDSTIPVYGRDELGRIARLLRHTLGQLNMQRRQLEQEVAERKEIEADLRAMQDELIQTAKLAVVGQTMTTLAHEINQPLNALSMYLFTAGRAIEQGQSGQARNTLRKAEGLINRIDAIIRSLRQFYRRAELETPLYPVDARQTFVAAWELLAMRHQSRQGALSLPTDTVWVSGDEVRIQQVLVNVLANALDACSHDAVIAVTWQTQGEALEVYIADNGPGWPVALLPSLLKPFTTSKAVGLGIGLSISVSLMAQMKGDLRLASTLTRNACVVLQFSVTDVDDVE | failed
